Consider 2 molecules from patent publication US20230051715A1 (MABWELL THERAPEUTICS, published 2023).

For test [1], the target named is T1, cynomolgus monkey C1s (produced in house) (cynomolgus monkey, UniProt P09871 16-685 (human entry), limits assumed).
T1 construct: also called CyC1s
T1 chain: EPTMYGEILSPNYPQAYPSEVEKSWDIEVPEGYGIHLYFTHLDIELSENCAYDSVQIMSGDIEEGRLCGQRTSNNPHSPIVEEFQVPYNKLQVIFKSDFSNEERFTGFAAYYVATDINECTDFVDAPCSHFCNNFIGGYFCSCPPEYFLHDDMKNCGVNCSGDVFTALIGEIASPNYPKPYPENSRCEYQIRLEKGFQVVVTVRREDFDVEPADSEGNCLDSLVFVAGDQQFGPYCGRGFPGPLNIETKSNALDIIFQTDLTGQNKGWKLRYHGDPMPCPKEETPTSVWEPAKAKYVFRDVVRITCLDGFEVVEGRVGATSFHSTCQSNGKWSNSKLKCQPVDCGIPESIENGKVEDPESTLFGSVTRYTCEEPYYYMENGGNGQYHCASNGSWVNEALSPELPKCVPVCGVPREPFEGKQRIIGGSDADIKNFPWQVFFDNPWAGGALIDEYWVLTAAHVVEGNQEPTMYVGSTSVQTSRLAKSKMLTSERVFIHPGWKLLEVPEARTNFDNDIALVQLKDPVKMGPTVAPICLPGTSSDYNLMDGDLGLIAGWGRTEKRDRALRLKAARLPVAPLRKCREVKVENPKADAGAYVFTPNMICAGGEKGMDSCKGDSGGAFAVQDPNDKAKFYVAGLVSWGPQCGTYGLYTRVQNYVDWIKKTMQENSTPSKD
Briefly: BLI (Octet RED96e), antibody on AHC biosensor; C1s Species: Cyno Monkey; R^2 0.9997. The text has this: At last, analyte was dissociated in 1×KB for 360 sec. Data analysis was done using OCTET® Data Analysis HT Software (Sartorius AG).
On the technique in general: Biolayer interferometry detects binding as a change in optical thickness at a sensor tip.

For test [2], the target named is T2, human C1s mutant M5 (K336G) (human, UniProt P09871 16-688).
T2 construct: The entry is the mutant itself
T2 sequence: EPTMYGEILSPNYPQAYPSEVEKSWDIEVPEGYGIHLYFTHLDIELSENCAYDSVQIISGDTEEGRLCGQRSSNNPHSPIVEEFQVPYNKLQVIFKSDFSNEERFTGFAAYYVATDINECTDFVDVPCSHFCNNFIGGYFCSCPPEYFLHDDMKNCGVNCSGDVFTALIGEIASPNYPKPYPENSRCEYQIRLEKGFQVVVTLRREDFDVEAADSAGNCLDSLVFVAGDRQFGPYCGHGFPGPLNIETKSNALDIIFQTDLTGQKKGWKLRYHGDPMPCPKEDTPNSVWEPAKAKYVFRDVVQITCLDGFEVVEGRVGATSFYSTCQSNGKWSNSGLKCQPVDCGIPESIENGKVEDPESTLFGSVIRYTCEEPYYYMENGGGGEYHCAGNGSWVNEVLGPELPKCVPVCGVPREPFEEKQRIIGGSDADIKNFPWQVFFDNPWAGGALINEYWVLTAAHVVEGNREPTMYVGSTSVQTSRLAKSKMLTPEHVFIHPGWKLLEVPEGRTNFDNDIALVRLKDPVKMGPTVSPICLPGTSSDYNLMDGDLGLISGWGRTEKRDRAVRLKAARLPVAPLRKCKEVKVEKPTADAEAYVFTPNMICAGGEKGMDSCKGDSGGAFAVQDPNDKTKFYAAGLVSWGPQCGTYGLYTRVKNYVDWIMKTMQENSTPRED
Briefly: ELISA, plate coated with human C1s mutant M5: K336G, OD450nm; curve still rising at 1000 ng/ml, no upper plateau in the range. On the procedure:
ELISA was carried out by first coating 96-well plates with 200 ng/well of full-length or truncated C1s proteins overnight. The next morning, plates were blocked with SuperBlock T20 blocking buffer (Thermo Scientific 37536) for 1 h with gentle shaking. Then, various concentrations of anti-C1s antibodies diluted in SuperBlock T20 blocking buffer were added to the plates and incubated for 1 h with gentle shaking. Mouse IgG (Sigma-Aldrich 15381) and human IgG1 (BioXCell BP0297) were used as negative controls. The plates were washed before incubating with HRP conjugated secondary antibodies diluted in SuperBlock T20 blocking buffer (goat anti-mouse IgG (H+L) cross-adsorbed secondary antibody HRP (Invitrogen G-21040) or goat anti-human IgG antibody, HRP conjugate (Millipore AP309P)) for 1 h with gentle shaking. At last, the plates were washed and color developed with ELISA liquid HRP substrate (Sigma-Aldrich), followed by stopping the reaction with addition of 1M H₂SO₄ in the same volume as the ELISA liquid substrate. Bound antibody was measured by absorbance at OD₄₅₀ₙₘ.
Binding of anti-C1s antibodies to mutants M1-M20 of human C1s was measured by ELISA as described in Example 4, and results are shown in FIGS. 6B-6U. […]

B1: Anti-C1s antibody hz2-7(H1L2) (antibody, V domains shown)
VH: EVQLLESGGGLVQPGGSLRLSCAASGFTFSNYFMNWVRQAPGKGLEWVSEIRLKFTNYATHYADSVKGRFTISRDDSKSTLYLQMNSLRAEDTAVYYCTRDYGSRNGYFDYWGQGTLVTVSS
VL: DIVMTQTPLSLPVTPGEPASISCRSSKSLLHSNGNTFLYWFLQKPGQSPQLLIYRMSNLASGVPDRFSGSGSGTDFTLKISRVEAEDVGVYYCMQHLEYPYTFGGGTKLEIKR
notes: Humanized, human IgG1 / kappa; also called hz2-7(1L2)
Usually Kd stands for a measure of binding affinity in units of concentration. What is called koff is the first-order rate constant of dissociation. In general, kon refers to a measure of how fast the partners come together. In test [1], B1 displayed a Kd of 0.94 nM, a koff of 0.00023 s⁻¹ and a kon of 250000 M⁻¹ s⁻¹.

B2: Anti-C1s antibody hz2-8 (H1L2 G80A/T82A) (antibody, V domains shown)
VH: QVQLVQSGAEVKKPGASVKVSCKASGFNIKEYYMHWVRQAPEQGLEWMGWIDPENADAIYAQKFQGRVTITADTSTNTAYMELSSLRSEDTAVYYCARSRLFFAYWGQGTLVTVSS
VL: DIQMTQSPKSLSASVGDRVTITCRASQDVRTALDWYQQKPGQSPKLLIYSASYRYSGVPSRFSGSGSGTDFTLTISSLQPEDFATYYCQQQYTTPYTFGQGTKLEIKR
notes: Humanized variant with G80A and T82A in HC CDR2 (already in the entry), human IgG1 / kappa
Usually EC50 stands for the midpoint of the concentration-response curve. In turn, B2 displayed a concentration for a half-maximal effect (EC50) in test [2] of 0.468 µg/mL.
